Molecular target: T1, dopamine D5 receptor-GFP (D5-GFP) (Aequoria victoria, UniProt P21918 1-477; P42212 1-238 = GFP)
T1 construct: also called D5 dopamine receptor; not shown: vector-encoded residues between the KpnI site and the start codon of GFP
Experiment: NLS co-trafficking assay, co-transfected HEK cells, 48 h, confocal microscopy

B1: Dopamine D1 receptor containing a NLS (D1-NLS) (receptor)
chain: MRTLNTSAMDGTGLVVERDFSVRILTACFLSLLILSTLLGNTLVCAAVIRFRHLRSKVTNFFVISLAVSDLLVAVLVMPWKAVAEIAGFWPFGSFCNIWVAFDIMCSTASILNLCVISVDRYWAISSPFRYERKMTPKAAFILISVAWTLSVLISFIPVQLSWHKAKPTSPSDGNATSLAETIDNCDSSLSRTYAISSSVISFYIPVAIMIVTYTRIYRIAQKQIRRIAALERAAVHAKNCQTTTGNGKPVECSQPESSFKMSFKRETKVLKTLSVIMGVFVCCWLPFFILNCILPFCGSGETQPFCIDSNTFDVFVWFGWANSSLNPIIYAFNAKKFKRFSTLLGCYRLCPATNNAIETVSINNNGAAMFSSHHEPRGSISKECNLVYLIPHAVGSSEDLKKEEAAGIARPLEKLSPALSVILDYDTDVSLEKIQPITQNGQHPT
notes: No fluorescent tag; whether that entry is the full-length receptor cannot be seen from the text; The vector of the untagged D1-NLS is not described; also called D1 receptor with the NLS
binding result: no binding

— patent US20100279318A1 (OMEROS, published 2010)
